Measurements as given in US5493008A, “Two non-contiguous regions contribute to nidogen binding to a single EGF-like motif of the laminin γ1 chain” (The University Of Virginia Patent Foundation, priority 1994, dated 1996).
Like-named read-outs stand apart in the source and are kept apart here. Where no end group is shown, it is not given here. The star is where a group is joined. Nle‑OMe = norleucine methyl ester coupled to carboxyl groups via carbodiimide, CCCC[C@H](N*)C(=O)OC

What was measured:
[1] = target: T1, recombinant nidogen (Mus musculus (Mouse)) (UniProt P10493); assay: radioligand competition assay
T1 sequence: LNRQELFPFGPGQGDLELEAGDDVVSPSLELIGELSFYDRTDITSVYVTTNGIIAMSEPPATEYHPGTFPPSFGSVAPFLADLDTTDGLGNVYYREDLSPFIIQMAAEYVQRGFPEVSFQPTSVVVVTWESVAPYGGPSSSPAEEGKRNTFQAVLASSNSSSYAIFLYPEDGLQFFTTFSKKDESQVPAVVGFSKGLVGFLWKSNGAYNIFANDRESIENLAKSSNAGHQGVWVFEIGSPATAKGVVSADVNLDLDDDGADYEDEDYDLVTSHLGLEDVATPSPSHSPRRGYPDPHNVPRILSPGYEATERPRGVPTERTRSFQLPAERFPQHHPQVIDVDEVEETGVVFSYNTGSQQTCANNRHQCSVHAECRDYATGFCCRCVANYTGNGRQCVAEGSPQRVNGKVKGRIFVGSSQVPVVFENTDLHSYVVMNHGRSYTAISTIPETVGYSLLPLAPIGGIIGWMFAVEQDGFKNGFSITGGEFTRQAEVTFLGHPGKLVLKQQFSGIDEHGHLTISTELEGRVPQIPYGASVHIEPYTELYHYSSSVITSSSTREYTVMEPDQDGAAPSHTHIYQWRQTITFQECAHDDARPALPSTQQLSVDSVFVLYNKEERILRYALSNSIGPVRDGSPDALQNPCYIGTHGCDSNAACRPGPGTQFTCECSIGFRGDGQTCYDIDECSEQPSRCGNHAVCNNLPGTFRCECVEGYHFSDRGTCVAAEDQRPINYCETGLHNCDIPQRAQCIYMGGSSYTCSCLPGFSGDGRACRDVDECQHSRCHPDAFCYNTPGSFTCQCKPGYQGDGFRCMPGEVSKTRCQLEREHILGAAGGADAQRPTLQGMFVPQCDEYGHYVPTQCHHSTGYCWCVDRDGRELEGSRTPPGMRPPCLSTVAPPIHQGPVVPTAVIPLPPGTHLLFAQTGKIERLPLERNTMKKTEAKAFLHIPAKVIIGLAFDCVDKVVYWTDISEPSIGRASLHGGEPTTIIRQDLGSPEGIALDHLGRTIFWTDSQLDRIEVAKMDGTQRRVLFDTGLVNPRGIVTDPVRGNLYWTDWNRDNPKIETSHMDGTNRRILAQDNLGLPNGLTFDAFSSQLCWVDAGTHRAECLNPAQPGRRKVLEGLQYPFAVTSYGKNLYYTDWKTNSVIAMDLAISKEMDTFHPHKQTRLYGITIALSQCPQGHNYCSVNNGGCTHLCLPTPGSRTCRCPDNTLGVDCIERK

[2] = target: T1, recombinant nidogen (Mus musculus (Mouse)); assay: radioligand competition assay: inhibitor varied, 0.2 nM recombinant nidogen, 125I-laminin fragment P1
nidogen = target: T2, nidogen (Mus musculus, UniProt P10493); assay: Radioligand competition assay: inhibition of 125I-laminin fragment P1 binding to nidogen
T2 sequence (P10493 29-1245): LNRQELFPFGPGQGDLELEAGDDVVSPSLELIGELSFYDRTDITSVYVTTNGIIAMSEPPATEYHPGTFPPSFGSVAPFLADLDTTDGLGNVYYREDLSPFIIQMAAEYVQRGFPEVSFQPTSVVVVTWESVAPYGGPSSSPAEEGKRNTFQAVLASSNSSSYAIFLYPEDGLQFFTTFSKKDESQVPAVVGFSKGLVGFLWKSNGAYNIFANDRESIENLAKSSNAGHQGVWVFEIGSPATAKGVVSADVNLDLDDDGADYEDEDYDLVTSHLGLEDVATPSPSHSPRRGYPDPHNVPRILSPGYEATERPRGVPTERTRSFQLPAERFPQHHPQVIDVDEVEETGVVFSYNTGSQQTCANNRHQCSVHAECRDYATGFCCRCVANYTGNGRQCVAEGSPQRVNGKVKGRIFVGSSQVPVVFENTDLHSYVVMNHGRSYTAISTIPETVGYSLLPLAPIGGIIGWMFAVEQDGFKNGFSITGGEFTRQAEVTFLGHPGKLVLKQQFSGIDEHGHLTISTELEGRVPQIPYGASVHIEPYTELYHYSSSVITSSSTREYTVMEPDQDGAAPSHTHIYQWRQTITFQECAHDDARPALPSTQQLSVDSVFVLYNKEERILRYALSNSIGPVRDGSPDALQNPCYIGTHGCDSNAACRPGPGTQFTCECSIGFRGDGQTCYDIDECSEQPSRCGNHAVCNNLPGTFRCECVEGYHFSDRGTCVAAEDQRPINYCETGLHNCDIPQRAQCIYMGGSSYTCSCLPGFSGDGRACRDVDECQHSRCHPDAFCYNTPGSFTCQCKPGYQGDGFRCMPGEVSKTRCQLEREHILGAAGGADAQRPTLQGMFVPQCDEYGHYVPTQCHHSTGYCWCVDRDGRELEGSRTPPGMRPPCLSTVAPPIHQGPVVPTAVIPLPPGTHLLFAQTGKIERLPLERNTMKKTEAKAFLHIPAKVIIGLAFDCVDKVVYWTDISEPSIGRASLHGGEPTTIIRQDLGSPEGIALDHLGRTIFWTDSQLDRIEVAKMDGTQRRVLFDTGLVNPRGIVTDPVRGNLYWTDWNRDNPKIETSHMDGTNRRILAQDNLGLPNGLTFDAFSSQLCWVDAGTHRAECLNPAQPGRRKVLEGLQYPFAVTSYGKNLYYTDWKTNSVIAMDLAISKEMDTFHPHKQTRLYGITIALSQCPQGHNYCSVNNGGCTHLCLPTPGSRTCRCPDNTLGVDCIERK
Method: A radioligand competition assay was used for measurement of relative binding affinities (Mann K. et al. (1988), Eur. J. Biochem., 178, 71-80; Fox, J. W. et al. (1991), EMBO J., 10, 3137-3146). A fixed concentration of recombinant nidogen (0.2 nM) was incubated overnight at 4° C. with inhibitors at varying concentrations, followed by the addition of ^125 I-labeled laminin fragment P1 (0.01 nM; 10,000-20,000 c.p.m.) for the same incubation period. Bound and non-bound fragment P1 was then separated by antibodies against nidogen. Competitor concentrations causing 50% inhibition (IC50) were determined from dose-response profiles. […] IC50 values compared from different assays were normalized to a single fragment P1 value.

recombinant nidogen [3] = target: T3, recombinant nidogen (Mus musculus (Mouse), UniProt P10493); assay: radioligand competition assay, synthetic heptapeptide variant
T3 sequence: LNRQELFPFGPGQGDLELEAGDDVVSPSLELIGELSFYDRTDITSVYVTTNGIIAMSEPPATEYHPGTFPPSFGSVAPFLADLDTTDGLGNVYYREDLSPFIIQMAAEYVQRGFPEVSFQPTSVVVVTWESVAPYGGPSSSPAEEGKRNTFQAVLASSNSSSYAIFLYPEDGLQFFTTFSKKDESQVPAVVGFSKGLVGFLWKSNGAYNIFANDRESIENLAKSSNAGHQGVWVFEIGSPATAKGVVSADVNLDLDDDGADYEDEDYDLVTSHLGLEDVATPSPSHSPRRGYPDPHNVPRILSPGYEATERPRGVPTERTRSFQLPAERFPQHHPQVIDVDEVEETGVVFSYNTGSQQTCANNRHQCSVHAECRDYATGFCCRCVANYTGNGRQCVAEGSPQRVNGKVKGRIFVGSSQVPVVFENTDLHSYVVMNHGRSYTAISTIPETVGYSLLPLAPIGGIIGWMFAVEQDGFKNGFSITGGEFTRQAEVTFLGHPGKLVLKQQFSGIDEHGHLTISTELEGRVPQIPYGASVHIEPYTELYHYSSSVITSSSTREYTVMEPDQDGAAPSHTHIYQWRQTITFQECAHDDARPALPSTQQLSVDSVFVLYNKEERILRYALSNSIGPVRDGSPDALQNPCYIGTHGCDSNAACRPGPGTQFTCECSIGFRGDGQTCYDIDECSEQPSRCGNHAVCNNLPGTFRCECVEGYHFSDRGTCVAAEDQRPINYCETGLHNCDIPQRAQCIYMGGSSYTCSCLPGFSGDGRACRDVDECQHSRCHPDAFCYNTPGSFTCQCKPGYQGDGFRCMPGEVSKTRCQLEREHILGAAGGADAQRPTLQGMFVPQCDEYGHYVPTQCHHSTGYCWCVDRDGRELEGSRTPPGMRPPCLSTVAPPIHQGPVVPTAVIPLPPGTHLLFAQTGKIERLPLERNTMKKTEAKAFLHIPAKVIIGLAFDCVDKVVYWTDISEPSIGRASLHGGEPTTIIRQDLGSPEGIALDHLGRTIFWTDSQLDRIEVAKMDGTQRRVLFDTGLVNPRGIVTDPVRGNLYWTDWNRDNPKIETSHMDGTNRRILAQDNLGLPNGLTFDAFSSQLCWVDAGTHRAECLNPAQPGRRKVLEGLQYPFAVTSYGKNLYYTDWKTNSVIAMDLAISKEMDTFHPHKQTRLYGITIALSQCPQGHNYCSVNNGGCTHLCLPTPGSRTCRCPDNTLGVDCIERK
Method: (§1) A radioligand competition assay was used for measurement of relative binding affinities (Mann K. et al. (1988), Eur. J. Biochem., 178, 71–80; Fox, J. W. et al. (1991), EMBO J., 10, 3137–3146). A fixed concentration of recombinant nidogen (0.2 nM) was incubated overnight at 4° C. with inhibitors at varying concentrations, followed by the addition of ^125I-labeled laminin fragment P1 (0.01 nM; 10,000–20,000 c.p.m.) for the same incubation period. Bound and non-bound fragment P1 was then separated by antibodies against nidogen.

recombinant nidogen [4] = target: T3, recombinant nidogen; assay: radioligand competition assay: inhibitor varied, 0.2 nM recombinant nidogen, 125I-laminin fragment P1
Method: as §1

recombinant nidogen [5] = target: T3, recombinant nidogen; assay: as above; remark: listed apart in the source
Method: as §1

recombinant nidogen [6] = target: T3, recombinant nidogen; assay: radioligand competition assay
Method: as §1

## IOPNAVGN (S, 799-806) (peptide)
[1]
  fold loss in activity: 2 fold

## T1, 792-809 (peptide)
[2]
  IC50: 500 nM

## synthetic loop a,b, non-oxidized (792-815) (peptide)
[1]
  fold higher IC50 than fragment P1: 5000 fold
[2]
  IC50: 400 nM

## γ1III3-5Δ4 (from UniProt P02468)
[2]
  IC50: > 3200 nM

## γ1III3ab4cd (from UniProt P02468)
[2]
  IC50: 1100 nM

## γ1III4ab3cd (from UniProt P02468)
[1]
  fold higher activity than synthetic oxidized loop a,b: 3 fold
  further fold decrease in activity against modification of Tyr819: 30 fold
[2]
  IC50: 80 nM

## γ1III4ab3cd: recombinant chimera: loop a,b of repeat 4 with loop c,d of repeat 3 (PCQCNDNIDPNAVGNCNRLTGECLKCPTGTAGKRCELCDDGYFGDPLGSNGPVRLCR)
nidogen; Table IV, recombinant mutants and chimeric structures of γ1III4, read-out: IC50 (inhibitory activity for laminin-nidogen binding)
  IC50: 80 nM
nidogen; loop c replaced by loop c of a non-binding repeat, relative to the Tyr819 modification
  further decrease in activity: 30 fold
nidogen; read-out: IC50
  IC50: 80 nM
nidogen; relative to synthetic loop a,b peptide
  higher inhibitory activity compared with loop a,b: 3 fold

B1: NIDQNAV (peptide)
peptide: NIDQNAV
Recombinant nidogen [3]
  fold decrease in activity against the heptapeptide NIDPNAV: 3 fold
Recombinant nidogen [4]
  IC50: 2400 nM

B2: NIDPNA (S, 798-803) (peptide)
peptide: NIDPNA
Recombinant nidogen [5]
  binding result: no binding (tested: >460,000 nM)

B3: synthetic loop a,b, amidated (792-815) (peptide)
peptide: PCQCND(Nle‑OMe)NTD(Nle‑OMe)PNAVGNCNRLTGE(Nle‑OMe)CL
modifications: not fully specified; cysteine pairing not given here; also: carboxyl groups of Asp and Glu blocked with norleucine methyl ester (amidation), sites not placed
Recombinant nidogen [5]
  IC50: > 5400 nM

B4: γ1III3-5, Lys acetylation (other)
chain: PCPCPGGSSCAIVPKTKEVVCTHCPTGTAGKRCELCDDGYFGDPLGSNGPVRLCRPCQCNDNIDPNAVGNCNRLTGECLKCIYNTAGFYCDRCKEGFFGNPLAPNPADKCKACACNPYGTVQQQSSCNPVTGQCQCLPHVSGRDCGTCDPGYYNLQSGQGCE
modifications: lysine amino groups acetylated with acetic acid anhydride
Recombinant nidogen [6]
  fold decrease in binding activity against unmodified γ1III3-5: 7 fold
Recombinant nidogen [5]
  IC50: 0.27 nM

B5: recombinant fragment γ1III3-5 (other)
chain: PCPCPGGSSCAIVPKTKEVVCTHCPTGTAGKRCELCDDGYFGDPLGSNGPVRLCRPCQCNDNIDPNAVGNCNRLTGECLKCIYNTAGFYCDRCKEGFFGNPLAPNPADKCKACACNPYGTVQQQSSCNPVTGQCQCLPHVSGRDCGTCDPGYYNLQSGQGCE
Recombinant nidogen [5]
  IC50: 0.04 nM

B6: γ1III3-5, Asp/Glu amidation (other)
chain: PCPCPGGSSCAIVPKTKEVVCTHCPTGTAGKRCELCDDGYFGDPLGSNGPVRLCRPCQCNDNIDPNAVGNCNRLTGECLKCIYNTAGFYCDRCKEGFFGNPLAPNPADKCKACACNPYGTVQQQSSCNPVTGQCQCLPHVSGRDCGTCDPGYYNLQSGQGCE
modifications: carboxyl groups (Asp, Glu) activated with 1-ethyl-3-dimethylaminopropylcarbodiimide and blocked by norleucine methylester
Recombinant nidogen [5]
  IC50: 2.1 nM

B7: NVDPSAV (peptide)
peptide: NVDPSAV
Recombinant nidogen [5]
  binding result: no binding (tested: >180,000 nM)
